# Patent publication US20050048060A1, “Immunoconjugates” (priority 2002, published 2005)
# Experiments:
# [1] = system: LS 174T human adenocarcinoma cells; assay: In vitro cytotoxicity assay, [3H] thymidine incorporation, conjugate + CCM prodrug; settings: cells blocked with unconjugated cAb-CEA5 0.1 mg/ml before conjugate
# [2] = system: LS 174T tumor xenografts; assay: Conjugate localization (125I labeled conjugate biodistribution) in nude mice bearing LS 174T tumor xenografts; settings: mouse, in vivo, iv, 1 mg/kg
# Protocol: FIG. 4: Pharmacokinetics of cAb-CEA5::βL and the nonbinding control cAb-Lys3::βL in nude mice (three animals/group). βL conjugate levels in subcutaneous LS 174T colon carcinoma tumors and in normal tissues are shown at 6 hours, 24 hours and 48 hours post-administration. cAb-Lys3::βL served as nonbinding control.
# Studies were undertaken in nude mice to establish the extent of cAb-CEA5::β-lactamase conjugate localization in LS 174T tumor xenografts. ^125I labeled cAb-CEA5::β-lactamase (4,728,481 cpm/μg conjugate) or cAb-Lys3::β-lactamase conjugate (2,691,621 cpm/μg conjugate) were injected i.v. (1 mg/kg) into mice (3 animals/group) that had subcutaneous LS 174T carcinoma tumors of about 0.5-1 cm diameter. The amount of radioactivity in the tumors, blood, and several other tissues was determined 6 hours, 24 hours and 48 hours later (FIG. 4). […] In order to see whether the radioactivity measured originated from intact conjugate molecules or degraded material, the enzymatic activity of β-lactamase in targeted tumor, liver and kidney tissue using nitrocefin was assessed. […]
# The cAb-CEA::βL conjugate was radioiodinated with carrier-free ^125I using the IODOGEN reagent, following the manufacturer's (Pierce, Rockford, Ill., US) recommended method. […] The tumor, a sample of blood, and a range of other tissues were removed, weighed, and counted in a gamma counter.
# [3] = system: LS 174T xenografts; assay: Anti-tumor effect of the prodrug therapy in nude mice with LS 174T xenografts; format: in vivo; settings: conjugate 1 mg/kg i.v.
# Protocol: FIG. 5: Therapeutic effect of cAb::βL/CCM combinations in nude mice with LS 174T xenografts. Conjugates (1 mg/kg) were injected i.v. on days indicated by the arrows, and CCM was administered 24 hours later. The therapeutic effects were compared to those of PDM at the MTD.
# The anti-tumor effect of giving cAb-CEA::βL conjugate (1 mg/kg body weight) followed 24 hours later by escalating doses of CCM (100, 150, 200 mg/kg) are shown in FIG. 5. […] Therapeutic efficiency was dose-dependent.
# Groups of five female athymic nude mice were injected subcutaneously with 2×10^6 LS 174T tumor cells. Ten days later when the tumors reached a size of about 100 mm^3, 1 mg/kg bodyweight of βL conjugates was injected i.v., followed 24 hours later by the prodrug CCM. Treatment with cAb-βL+CCM was carried out on a weekly schedule for a total of three rounds. The animals were monitored twice a week for general health, weight and tumor growth and compared to control groups receiving no treatment. Tumor volumes were calculated using the formula (longest length×perpendicular width^2)/2.
# [4] = parameters: species or system nude mice
# Protocol: Studies were undertaken in nude mice to establish the extent of cAb-CEA5::β-lactamase conjugate localization in LS 174T tumor xenografts. ^125I labeled cAb-CEA5::β-lactamase (4,728,481 cpm/μg conjugate) or cAb-Lys3::β-lactamase conjugate (2,691,621 cpm/μg conjugate) were injected i.v. (1 mg/kg) into mice (3 animals/group) that had subcutaneous LS 174T carcinoma tumors of about 0.5-1 cm diameter. The amount of radioactivity in the tumors, blood, and several other tissues was determined 6 hours, 24 hours and 48 hours later (FIG. 4). […] A rather high accumulation of both cAb-CEA5::βL and cAb-Lys3::βL conjugates in the kidneys (0.41-0.53% ID/g tissue) was also noticed. In order to see whether the radioactivity measured originated from intact conjugate molecules or degraded material, the enzymatic activity of β-lactamase in targeted tumor, liver and kidney tissue using nitrocefin was assessed. […] The blood and normal tissue levels were still high at this time point and, thus, tumor/normal tissue ratios were low. After 24 hours, although the amounts of cAb-CEA::βL conjugate in the tumors had fallen to approximately 1% injected dose/g tumor, the blood and normal tissue levels had fallen more rapidly and, consequently, tumor/normal tissue ratios were in the 10-50 fold range, except for the kidneys where a high amount of radioactivity could still be measured.
molecule,measurement,setting,value
cAb-CEA5-βL (protein) QVQLVESGGGSVQAGGSLRLSCAASGDTYGSYWMGWFRQAPGKEREGVAAINRGGGYTVYADSVKGRFTISRDTAKNTVYLQMNSLRPDDTADYYCAASGVLGGLHEDWFNYWGQGTQVTVSSAHHSEDPSSKAPKAPMGTPVSEKQLAEVVANTITPLMKAQSVPGMAVAVIYQGKPHYYTFGKADIAANKPVTPQTLFELGSISKTFTGVLGGDAIARGEISLDDAVTRYWPQLTGKQWQGIRMLDLATYTAGGLPLQVPDEVTDNASLLRFYQNWQPQWKPGTTRLYANASIGLFGALAVKPSGMPYEQAMTTRVLKPLKLDHTWINVPKAEEAHYAWGYRDGKAVRVSPGMLDAQAYGVKTNVQDMANWVMANMAPENVADASLKQGIALAQSRYWRIGSMYQGLGWEMLNWPVEANTVVEGSDSKVALAPLPVAEVNPPAPPVKASWVHKTGSTGGFGSYVAFIPEKQIGIVMLANTSYPNPARVEAAYHILEALQHHHHHH,prodrug CCM activation on cells saturated with unconjugated cAb-CEA5,[1],activated CCM at marginal levels
same,amount of conjugate in the tumors,[2],approximately 1 % injected dose/g tumor
same,anti-tumor activity at 200 mg CCM/kg/injection,[3]; 24 hours later CCM 200 mg/kg/injection,Significant anti-tumor activity including partial regression of the tumors
same,anti-tumor effect of the prodrug therapy combination,"[3]; 24 hours later CCM 100, 150, 200 mg/kg, weekly, three rounds, vs non-treated or cAb-Lys3::βL + CCM",significant anti-tumor effect
same,β-lactamase enzymatic activity in excised tumor tissue,[4],enzymatic activity was intact
same,β-lactamase enzymatic activity in kidney tissue,[4],no activity could be measured
same,β-lactamase enzymatic activity in liver tissue,[4],no activity could be measured
